Earlier results as cited in article PMC9010944.

Target: PDGF-BB (Homo sapiens) (UniProt P01127)
Sequence (P01127 82-190): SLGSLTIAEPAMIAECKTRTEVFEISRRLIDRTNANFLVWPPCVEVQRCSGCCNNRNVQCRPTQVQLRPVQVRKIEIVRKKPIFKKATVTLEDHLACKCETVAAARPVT

Sequence of Perlecan domain III-2 (P98160 924-1324): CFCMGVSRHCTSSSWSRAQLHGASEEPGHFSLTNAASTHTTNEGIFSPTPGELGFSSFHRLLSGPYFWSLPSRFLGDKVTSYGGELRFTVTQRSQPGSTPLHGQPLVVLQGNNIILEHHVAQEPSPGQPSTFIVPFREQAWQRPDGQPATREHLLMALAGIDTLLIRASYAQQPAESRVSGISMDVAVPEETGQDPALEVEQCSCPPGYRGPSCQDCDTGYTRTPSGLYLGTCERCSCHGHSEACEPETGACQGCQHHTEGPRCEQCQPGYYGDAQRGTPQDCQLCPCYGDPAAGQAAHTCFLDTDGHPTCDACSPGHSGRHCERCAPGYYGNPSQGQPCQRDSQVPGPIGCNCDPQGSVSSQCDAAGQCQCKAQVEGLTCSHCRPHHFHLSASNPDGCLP

Perlecan domain III-2 (from UniProt P98160)
Kd: 8 nM
